Here are results for ten sequences from patent US20130116129.

One data set deals with mouse IgG (Mus musculus). As to the kind of experiment: SELEX.
Data set [1] has as its system rat IgG (Rattus norvegicus). As to the kind of experiment: SELEX. The conditions noted are these: uppercase RNA, lowercase DNA.

In the data set on mouse IgG (Mus musculus) (beads alone 155, p=0.037, 37 C), “CGAUAGGUGUUGAGGGCGAUCUCAGCGCUUGUUG [T1-GGCGAT]” came in with a binding signal of 691 reads.
As for “CGAUAGGUGUUGAGGGGUAUCUCAGCGCUUGUUG [T1-GGGTAT]”, in the data set with mouse IgG (Mus musculus) (beads alone 37, p=0.039, 37 C), the binding signal came to 787 reads.
In turn, “CGAUAGGUGUUGAGGUGGAUCUCAGCGCUUGUUG [T1-GTGGAT]” gave a binding signal in the data set on mouse IgG (Mus musculus) (beads alone 24, p=0.014, 37 C, library assigned to SEQ 2 from six-base random region) of 1560 reads.
In the data set on mouse IgG (Mus musculus) (beads alone 136, p=0.024, 37 C), “CGAUAGGUGUUGAGGUGGGUCUCAGCGCUUGUUG [T1-GTGGGT]” had a binding signal of 730 reads.
Take “CGAUAGGUGUUGAGGUUGGUCUCAGCGCUUGUUG [T1-GTTGGT]”: the binding signal with mouse IgG (Mus musculus) (beads alone 25, p=0.035, 37 C) was found to be 605 reads.
In turn, “CGAUAGGUGUUGAGUGGGCUCUCAGCGCUUGUUG [T1-TGGGCT]” gave a binding signal in the data set on mouse IgG (Mus musculus) (beads alone 78, p=0.014, before selection 201, p=0.123, 37 C) of 605 reads.
For “CGAUAGGUGUUGAGUUCGAUCUCAGCGCUUGUUG [T1-TTCGAT]”, the binding signal in the data set on mouse IgG (Mus musculus) (beads alone 44, p=0.019, 37 C) worked out at 548 reads.
As for “CGAUAGGUGUUGAGUUGGUUCUCAGCGCUUGUUG [T1-TTGGTT]”, in the data set with mouse IgG (Mus musculus) (beads alone 23, p=0.048, 37 C), the binding signal was found to be 713 reads.
In the case of “CGCCTCTCCGAGAGTGTAGGGCAUACAUTCTUGGAGAGGUG [T3-AGGGCAT]”, the binding signal amounted to 18 reads in the data set on mouse IgG (Mus musculus) (uppercase RNA, lowercase DNA, protein G beads 3) and 106 reads in data set [1] (protein G beads 3).
Take “CGCCTCTCCGAGAGTGTAUUAACCACAUTCTUGGAGAGGUG [T3-ATTAACC]”: the binding signal is 3120 reads with mouse IgG (Mus musculus) (uppercase RNA, lowercase DNA, protein G beads 78, 150 mM NaCl, 10 mM MgCl2) and 25 reads in data set [1] (below protein G bead background of 78).
